Laboratory results taken from patent publication US20230265151A1, “GIP/GLP1 CO-AGONIST COMPOUNDS” (priority 2020, published 2023).
Substitutions are numbered along the chain they refer to.

T1: human GIP receptor (human, UniProt P48546 22-466)
T1 construct: whole, on cells; also called hGIPR; human glucose-dependent insulinotropic polypeptide receptor
T1 sequence (looked up): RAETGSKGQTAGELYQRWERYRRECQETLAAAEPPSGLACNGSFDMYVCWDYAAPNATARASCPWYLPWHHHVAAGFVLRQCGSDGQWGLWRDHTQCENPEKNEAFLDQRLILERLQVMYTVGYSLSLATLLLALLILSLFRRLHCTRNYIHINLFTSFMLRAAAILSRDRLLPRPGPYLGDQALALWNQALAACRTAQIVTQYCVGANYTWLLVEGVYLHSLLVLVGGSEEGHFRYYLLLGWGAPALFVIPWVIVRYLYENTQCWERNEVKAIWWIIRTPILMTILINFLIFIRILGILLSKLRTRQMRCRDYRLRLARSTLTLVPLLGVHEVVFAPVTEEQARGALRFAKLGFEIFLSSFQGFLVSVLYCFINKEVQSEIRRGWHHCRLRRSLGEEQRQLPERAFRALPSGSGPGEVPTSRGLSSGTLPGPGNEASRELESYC

B1: Y-Aib-EGT-αMeF(2F)-TSD-4Pal-Aib-I-αMeL-LD-Orn-QAQ-Aib-Orn-FIK((2-[2-(2-Amino-ethoxy)-ethoxy]-acetyl)-(γ-Glu)-(2-[2-(2-Amino-ethoxy)-ethoxy]-acetyl)-(γ-Glu)-(10- … (peptide)
peptide: YXEGTXTSDXXIXLDXQAQXXFIKXLIKGGPSSGAPPPS
modifications: Aib2, αMeF(2F)6, 4Pal10, Aib11, αMeL13, Orn16, Aib20, Orn21, K24(Z1), αMeY25, K28(Z1), C-term NH2; Z1=AEEA-(γ-Glu)-AEEA-(γ-Glu)-(10-(4-carboxyphenoxy)decanoyl)
B2: Y-Aib-EGT-αMeF(2F)-TSD-4Pal-Aib-I-αMeL-LD-Orn-QAQ-Aib-Orn-FIK((2-[2-(2-Amino-ethoxy)-ethoxy]-acetyl)-(γ-Glu)-(10-(4-carboxyphenoxy)decanoyl))-αMeY-LIK((2-[2-(2- … (peptide)
peptide: B1 peptide
modifications: Aib2, αMeF(2F)6, 4Pal10, Aib11, αMeL13, Orn16, Aib20, Orn21, K24(Z1), αMeY25, K28(Z1), C-term NH2; Z1=AEEA-(γ-Glu)-(10-(4-carboxyphenoxy)decanoyl)
B3: Y-Aib-EGT-αMeF(2F)-TSD-4Pal-Aib-I-αMeL-LD-Orn-QAQ-Aib-Orn-FIK((γ-Glu)-(2-[2-(2-Amino-ethoxy)-ethoxy]-acetyl)2-(γ-Glu)-CO-(CH2)12-CO2H)-αMeY-LIK((γ-Glu)-(2-[2-(2 … (peptide)
peptide: B1 peptide
modifications: Aib2, αMeF(2F)6, 4Pal10, Aib11, αMeL13, Orn16, Aib20, Orn21, K24(Z1), αMeY25, K28(Z1), C-term NH2; Z1=(γ-Glu)-AEEA2-(γ-Glu)-CO-(CH2)12-CO2H
B4: Y-Aib-EGT-αMeF(2F)-TSD-4Pal-Aib-I-αMeL-LD-Orn-QAQ-Aib-Orn-FIK(((2-[2-(2-Amino-ethoxy)-ethoxy]-acetyl)2--Trx-(γ-Glu)-(10-(4-carboxyphenoxy)decanoyl))-αMeY-LIK((( … (peptide)
peptide: B1 peptide
modifications: Aib2, αMeF(2F)6, 4Pal10, Aib11, αMeL13, Orn16, Aib20, Orn21, K24(Z1), αMeY25, K28(Z1), C-term NH2; Z1=AEEA2-Trx-(γ-Glu)-(10-(4-carboxyphenoxy)decanoyl)
B5: Y-Aib-EGT-αMeF(2F)-TSD-4Pal-Aib-I-αMeL-LD-Orn-QAQ-Aib-Orn-FIK(((2-[2-(2-Amino-ethoxy)-ethoxy]-acetyl)2--Trx-(γ-Glu)-CO-(CH2)12-CO2H)-αMeY-LIK(((2-[2-(2-Amino-et … (peptide)
peptide: B1 peptide
modifications: Aib2, αMeF(2F)6, 4Pal10, Aib11, αMeL13, Orn16, Aib20, Orn21, K24(Z1), αMeY25, K28(Z1), C-term NH2; Z1=AEEA2-Trx-(γ-Glu)-CO-(CH2)12-CO2H
B6: Y-Aib-EGT-αMeF(2F)-TSD-4Pal-Aib-I-αMeL-LD-Orn-QAQ-Aib-Orn-FIK(((2-[2-(2-Amino-ethoxy)-ethoxy]-acetyl)-Trx-(γ-Glu)-CO-(CH2)12-CO2H)-αMeY-LIK(((2-[2-(2-Amino-etho … (peptide)
peptide: B1 peptide
modifications: Aib2, αMeF(2F)6, 4Pal10, Aib11, αMeL13, Orn16, Aib20, Orn21, K24(Z1), αMeY25, K28(Z1), C-term NH2; Z1=AEEA-Trx-(γ-Glu)-CO-(CH2)12-CO2H
B7: Y-Aib-EGT-αMeF(2F)-TSDY-Aib-I-αMeL-LD-Orn-QAQ-Aib-Orn-FIK((2-[2-(2-Amino-ethoxy)-ethoxy]-acetyl)2-(γ-Glu)2-CO-(CH2)12-CO2H)-αMeY-LIK((2-[2-(2-Amino-ethoxy)-etho … (peptide)
peptide: B1 peptide with X10Y
modifications: Aib2, αMeF(2F)6, Aib11, αMeL13, Orn16, Aib20, Orn21, K24(Z1), αMeY25, K28(Z1), C-term NH2; Z1=AEEA2-(γ-Glu)2-CO-(CH2)12-CO2H
B8: Y-Aib-EGT-αMeF(2F)-TSD-4Pal-Aib-I-αMeL-LD-Orn-QAQ-Aib-Orn-FIK(((2-[2-(2-Amino-ethoxy)-ethoxy]-acetyl)-Trx-(γ-Glu)-(10-(4-carboxyphenoxy)decanoyl))-αMeY-LIK(((2- … (peptide)
peptide: B1 peptide
modifications: Aib2, αMeF(2F)6, 4Pal10, Aib11, αMeL13, Orn16, Aib20, Orn21, K24(Z1), αMeY25, K28(Z1), C-term NH2; Z1=AEEA-Trx-(γ-Glu)-(10-(4-carboxyphenoxy)decanoyl)
B9: Y-Aib-EGT-αMeF(2F)-TSD-4Pal-Aib-I-αMeL-LD-Orn-QAQ-Aib-Orn-FIK(PEG3-(γ-Glu)-(10-(4-carboxyphenoxy)decanoyl))-αMeY-LIK(PEG3-(γ-Glu)-(10-(4-carboxyphenoxy)decanoyl … (peptide)
peptide: B1 peptide
modifications: Aib2, αMeF(2F)6, 4Pal10, Aib11, αMeL13, Orn16, Aib20, Orn21, K24(Z1), αMeY25, K28(Z1), C-term NH2; Z1=PEG3-(γ-Glu)-(10-(4-carboxyphenoxy)decanoyl)
B10: Y-Aib-EGT-αMeF(2F)-TSD-4Pal-Aib-I-αMeL-LD-Orn-QAQ-Aib-Orn-FIK((2-[2-(2-Amino-ethoxy)-ethoxy]-acetyl)3-(γ-Glu)-CO-(CH2)12-CO2H)-αMeY-LIK((2-[2-(2-Amino-ethoxy)-e … (peptide)
peptide: B1 peptide
modifications: Aib2, αMeF(2F)6, 4Pal10, Aib11, αMeL13, Orn16, Aib20, Orn21, K24(Z1), αMeY25, K28(Z1), C-term NH2; Z1=AEEA3-(γ-Glu)-CO-(CH2)12-CO2H

biological target: T2, human glucagon receptor (human, UniProt P47871 26-477); assay: SPA competition vs [125I]-Gcg, hGcgR membranes
T2 construct: whole, on cells; also called hGCGR; hGcgR
T2 sequence (P47871 26-477): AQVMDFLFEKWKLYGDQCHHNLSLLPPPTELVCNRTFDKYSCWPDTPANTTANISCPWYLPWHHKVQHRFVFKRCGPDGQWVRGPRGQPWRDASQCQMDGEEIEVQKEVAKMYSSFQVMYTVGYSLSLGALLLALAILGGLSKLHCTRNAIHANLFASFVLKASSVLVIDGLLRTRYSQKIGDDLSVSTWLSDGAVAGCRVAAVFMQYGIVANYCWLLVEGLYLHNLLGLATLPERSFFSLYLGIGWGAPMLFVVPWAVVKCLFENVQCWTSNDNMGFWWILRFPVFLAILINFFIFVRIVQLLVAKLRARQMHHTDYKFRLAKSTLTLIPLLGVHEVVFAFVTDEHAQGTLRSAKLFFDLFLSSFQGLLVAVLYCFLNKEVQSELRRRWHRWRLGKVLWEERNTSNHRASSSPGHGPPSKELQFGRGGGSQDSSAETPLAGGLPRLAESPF

| Binder | Ki |
| --- | --- |
| B1 | 121 nM |
| B2 | 54.5 nM |
| B3 | 273 nM |
| B4 | 452 nM |
| B5 | 945 nM |
| B6 | 258 nM |
| B7 | 88.5 nM |
| B8 | 162 nM |
| B9 | 87.5 nM |
| B10 | 605 nM |

biological target: T1, human GIP receptor; assay: SPA competition vs [125I]-GIP, hGIPR membranes

| Binder | Ki |
| --- | --- |
| B1 | 0.0548 nM |
| B2 | 0.0183 nM |
| B3 | 0.0277 nM |
| B4 | 0.0493 nM |
| B5 | 0.0346 nM |
| B6 | 0.0376 nM |
| B7 | 0.0368 nM |
| B8 | 0.0319 nM |
| B9 | 0.0102 nM |
| B10 | 0.0351 nM |

biological target: T3, human GLP-1 receptor (human, UniProt P43220 24-463); assay: SPA competition vs [125I]-GLP-1, hGLP-1R membranes
T3 construct: whole, on cells; also called hGLP-1R; human glucagon-like peptide-1 receptor
How it was run: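 Kᵢ values are geometric means (SEM) over replicates run on separate days, derived from IC₅₀ of four-parameter curve fits. Buffer: HEPES 25 mM pH 7.4 with CaCl₂ 2.5 mM, MgCl₂ 1 mM, bacitracin 0.1%, TWEEN-20 0.003%, EDTA-free protease inhibitors.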

| Binder | Ki |
| --- | --- |
| B1 | 0.3 nM |
| B2 | 0.143 nM |
| B3 | 0.254 nM |
| B4 | 0.197 nM |
| B5 | 0.121 nM |
| B6 | 0.254 nM |
| B7 | 0.307 nM |
| B8 | 0.169 nM |
| B9 | 0.125 nM |
| B10 | 0.226 nM |
